Residue numbers refer to the chain shown, from its start. Numbers in names are those of the source.
Tests used:
drRecO K43E/K72E;drRecR = molecular target: T1, drRecO K43E/K72E;drRecR (Deinococcus radiodurans;Deinococcus …, UniProt Q9RW50;Q9ZNA2 1-244;1-220, K43E;K72E|); assay: fluorescence anisotropy
T1 sequence 1: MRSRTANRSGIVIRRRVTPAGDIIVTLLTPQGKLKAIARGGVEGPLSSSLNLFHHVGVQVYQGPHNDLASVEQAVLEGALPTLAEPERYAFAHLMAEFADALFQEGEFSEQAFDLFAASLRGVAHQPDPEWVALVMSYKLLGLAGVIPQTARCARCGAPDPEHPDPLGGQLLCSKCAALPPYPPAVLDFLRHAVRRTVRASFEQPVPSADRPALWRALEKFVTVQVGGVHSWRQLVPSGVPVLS
T1 sequence 2: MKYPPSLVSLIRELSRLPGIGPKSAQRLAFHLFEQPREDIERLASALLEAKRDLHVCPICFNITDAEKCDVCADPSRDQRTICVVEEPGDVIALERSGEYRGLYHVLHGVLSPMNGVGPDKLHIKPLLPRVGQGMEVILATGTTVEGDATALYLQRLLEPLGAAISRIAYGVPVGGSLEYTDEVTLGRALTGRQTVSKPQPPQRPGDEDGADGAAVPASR

drRecO K72E/Q73E;drRecR = molecular target: T2, drRecO K72E/Q73E;drRecR (Deinococcus radiodurans;Deinococcus …, UniProt Q9RW50;Q9ZNA2 1-244;1-220, K72E;Q73E|); assay: fluorescence anisotropy
T2 sequence 1: T1 sequence 1 with E43K, Q73E
T2 sequence 2: T1 sequence 2

drRecO Q59E;drRecR = molecular target: T3, drRecO Q59E;drRecR (Deinococcus radiodurans;Deinococcus …, UniProt Q9RW50;Q9ZNA2 1-244;1-220, Q59E|); assay: fluorescence anisotropy
T3 sequence 1: T1 sequence 1 with E43K, Q59E, E72K
T3 sequence 2: T1 sequence 2

drRecO;drRecR K23E/R27E = molecular target: T4, drRecO;drRecR K23E/R27E (Deinococcus radiodurans;Deinococcus …, UniProt Q9RW50;Q9ZNA2 1-244;1-220, |K23E;R27E); assay: fluorescence anisotropy
T4 sequence 1: T1 sequence 1 with E43K, E72K
T4 sequence 2: T1 sequence 2 with K23E, R27E

drRecO = molecular target: T5, drRecO (Deinococcus radiodurans, UniProt Q9RW50 1-244); assay: fluorescence anisotropy
T5 sequence: T1 sequence 1 with E43K, E72K

drRecR = molecular target: T6, drRecR (Deinococcus radiodurans, UniProt Q9ZNA2 1-220); assay: fluorescence anisotropy
T6 sequence: T1 sequence 2

[1] = molecular target: T7, Deinococcus radiodurans RecO, N-terminal hexa-histidine tag (Deinococcus radiodurans, UniProt Q9RW50 1-244); assay: crystal structure
T7 sequence (looked up): T1 sequence 1 with E43K, E72K

crystal structure = molecular target: the molecule itself; assay: crystal structure
SAXS = molecular target: the molecule itself; assay: SAXS
[2] = molecular target: T8, Deinococcus radiodurans RecO, C-terminal hexa-histidine tag (Deinococcus radiodurans, UniProt Q9RW50 1-244); assay: SAXS
T8 sequence (looked up): T1 sequence 1 with E43K, E72K

Q: Which results are given for TTTTTTTTTTTTTTTTTTTTTTTTTTTTTTTTTTTTTTTTTTTTTTTTTT (ssDNA) [50mer poly(dT) ssDNA]?
A: binding result (drRecO K43E/K72E;drRecR): binds; binding result (drRecO K72E/Q73E;drRecR): binds; binding result (drRecO Q59E;drRecR): no binding; binding result (drRecO;drRecR K23E/R27E): no binding; Kd (drRecO): 8.7 µM; binding result (drRecR): no binding

B1: 50mer dsDNA (dsDNA)
DNA 1: GACTACGTACTGTTACGGCTCCATCTCTACCGCAATCAGGCCAGATCTGC
DNA 2: GCAGATCTGGCCTGATTGCGGTAGAGATGGAGCCGTAACAGTACGTAGTC
Q: Does B1 bind (drRecO Q59E;drRecR)?
A: no binding

Q: Does B1 bind (drRecO;drRecR K23E/R27E)?
A: no binding

Q: Does B1 bind (drRecR)?
A: no binding

B2: Deinococcus radiodurans RecR K23A/R27A double mutant (natural protein, UniProt Q9ZNA2 1-220, looked up)
chain: T1 sequence 2 with K23A, R27A
Q: Does B2 bind [1]?
A: binds

Q: What about the “stoichiometry N” value (crystal structure) of the same binder?
A: 4

B3: Deinococcus radiodurans RecR, full length, without tag (natural protein, UniProt Q9ZNA2 1-220, looked up)
chain: T1 sequence 2
Q: With B3 as the binder, how does the “stoichiometry N” value (SAXS) read?
A: 2

B4: Deinococcus radiodurans RecR, full length, C-terminal hexa-histidine tag (natural protein, UniProt Q9ZNA2 1-220, looked up)
chain: T1 sequence 2
Q: Does B4 bind [2]?
A: binds

From publication PMC3763555 (Nucleic Acids Research, 2013)
